Reference: article PMC5113752 (Protein expression and purification, 2015)

Target: the molecule itself
Assay: cross-linking

B1: p7 viroporin from hepatitis C virus strain H77 genotype 1a, in proteoliposomes (natural protein, hepatitis C virus genotype 1a strain H77, UniProt P27958 747-809, looked up)
chain: ALENLVILNAASLAGTHGLVSFLVFFCFAWYLKGRWVPGAVYALYGMWPLLLLLLALPQRAYA
stoichiometry N: 6
